In the supplement of paper PMC12764529:
± gives the half width of the 95% confidence interval.

What was measured:
[1] = folding stability dG unfold (combined trypsin and chymotrypsin); higher = more stable
How it was run: (§1)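 Digests were run with trypsin and chymotrypsin at 11 concentrations in threefold dilutions, plus a no-protease condition, on designed mini-proteins in a PA-tagged cDNA display construct. The mini-proteins were under 80 residues, had no cysteine, and were kept only when AlphaFold2 dimer inter-PAE was above 15. After sequencing, Bayesian fitting of the counts gave K50, from which unfolding free energy was derived against a sequence-predicted unfolded-state K50 and a shared folded-state K50, per protease or combined.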

[2] = folding stability dG unfold from trypsin proteolysis; higher = more stable
How it was run: as §1

[3] = folding stability dG unfold from chymotrypsin proteolysis; higher = more stable
How it was run: as §1

Q: Which “folding stability dG unfold” value [1] does the source give for “SAGGSAGGSAGGKKIKIKINSPGNAEEVKKLLEPFGLEVDSIKENKNNPNLIIVEVNVESAGGSAGGSAGGS [r10_104_TrMRF]” here?
A: The value was 1.01 ± 0.46 kJ/mol.

Q: And the “folding stability dG unfold” value [2]?
A: Its value is -1.16 ± 0.46 kJ/mol.

Q: What about the “folding stability dG unfold” value [3] of the same sequence?
A: The value was 2.36 ± 0.13 kJ/mol.

Q: Which results are given for “SAGGSAGGMVTSTDPATGIVYSLDPTTGVWSAQTVTLPPITIPVSEVPELLKALPPGTPILVLASAGGSAGG [r6_104_JUSTAS]”?
A: folding stability dG unfold [1]: 4.79 ± 0.155 kJ/mol; folding stability dG unfold [2]: 4.22 ± 0.0669 kJ/mol; folding stability dG unfold [3]: 4.84 ± 0.268 kJ/mol

Q: Which results are given for “SAGGSAPEDNYVVLIFIDISIEWKPKYDEDNGKNRIEFEWKLEIDIPTIVLPPDDPEAKDLLEDLLSAGGSA [r15_470_TrROS]”?
A: folding stability dG unfold [1]: 12.3 ± 0.502 kJ/mol; folding stability dG unfold [2]: 9.57 ± 0.28 kJ/mol; folding stability dG unfold [3]: 14 ± 0.586 kJ/mol

Q: Which “folding stability dG unfold” value [1] does the source give for “SAGGSAGGSAKEYIVRIKVRLKDGEEVEIEITVSEEELEELKKALESLPNIEEAEIEVFPLPSAGGSAGGSA [r18_157_TrROS_Hall]” here?
A: The value was 15.2 ± 0.276 kJ/mol.

Q: What about the “folding stability dG unfold” value [2] of the same sequence?
A: The value was 16 ± 0.46 kJ/mol.

Q: And the “folding stability dG unfold” value [3]?
A: Its value is 14.8 ± 0.18 kJ/mol.

Q: With “SAGGSAKITIHMAPDGMFQIEIKTGGKERTYHVDMPLEQIKDELEDEGLEIKDIEITPFPPDPEDFSAGGSA [r15_576_TrROS]” as the sequence, how does the “folding stability dG unfold” value [1] read?
A: Its value is -1.71 ± 0.669 kJ/mol.

Q: And the “folding stability dG unfold” value [2]?
A: The value was -4.73 ± 3.89 kJ/mol.

Q: And the “folding stability dG unfold” value [3]?
A: Its value is -0.61 ± 0.397 kJ/mol.

Q: Which results are given for “SAGGSAGGSAGGMIRIVNEETGEEIEISPEELEELLAKSDKPVRIEVDGKVIPLDAKDLSAGGSAGGSAGGS [r10_839_TrROS_Hall]”?
A: folding stability dG unfold [1]: 1.47 ± 0.381 kJ/mol; folding stability dG unfold [2]: 3.56 ± 0.126 kJ/mol; folding stability dG unfold [3]: -1.12 ± 0.226 kJ/mol

Q: Which results are given for “SAGGSAGPEITPPVVVVTFTFKFPDGKTIEIPTTDLEEGEKEIEKIKKPLLEKKNIELVKVTTKPVSAGGSA [r15_140_JUSTAS]”?
A: folding stability dG unfold [1]: -2.44 ± 1.51 kJ/mol; folding stability dG unfold [2]: -2.54 ± 1.55 kJ/mol; folding stability dG unfold [3]: -1.63 ± 1.51 kJ/mol

Q: For “SAGGSAGGWIPPEMARNIAKTLRDKGWPVEDIEVEREPNGWVTVDVDIQYPDGKKRKYPIQIPYSAGGSAGG [r6_762_TrROS]”, which “folding stability dG unfold” value [1] is on record?
A: Its value is 0.229 ± 0.711 kJ/mol.

Q: What about the “folding stability dG unfold” value [2] of the same sequence?
A: Its value is -1.84 ± 0.92 kJ/mol.

Q: And the “folding stability dG unfold” value [3]?
A: The value was 0.947 ± 0.962 kJ/mol.

Q: With “SGMVEVKVTVPPGPATLTATPSDGSTYSKSIPANSEVTFTFPVPASLPSSTTITFTLTFPDTGTTTTTSVSA [r9_275_JUSTAS]” as the sequence, how does the “folding stability dG unfold” value [1] read?
A: The value was 5.37 ± 1.09 kJ/mol.

Q: And the “folding stability dG unfold” value [2]?
A: The value was 5.34 ± 0.213 kJ/mol.

Q: What about the “folding stability dG unfold” value [3] of the same sequence?
A: Its value is 5.26 ± 1.05 kJ/mol.

Q: What does the source list for “SAGGSAGGSAGMPLYIIEVEKEDGSKITITIPENMTEEEIKKIAEELGIKKVEIIKKEDLSAGGSAGGSAGG [r11_490_TrROS_Hall]”?
A: folding stability dG unfold [1]: 7.7 ± 0.364 kJ/mol; folding stability dG unfold [2]: 8 ± 0.255 kJ/mol; folding stability dG unfold [3]: 7.53 ± 0.222 kJ/mol

Q: Which “folding stability dG unfold” value [1] does the source give for “SMKITATETPVGDKTTVTITVTIDPKEFPNKPPTEEFYKKIAEELMKKLGLKTYNISKTSSNTYTITIVDSA [r9_883_JUSTAS]” here?
A: Its value is 10.4 ± 0.205 kJ/mol.

Q: And the “folding stability dG unfold” value [2]?
A: Its value is 10.1 ± 0.255 kJ/mol.

Q: And the “folding stability dG unfold” value [3]?
A: The value was 10.4 ± 0.105 kJ/mol.

Q: Which “folding stability dG unfold” value [1] does the source give for “SAGGSMETRETLEERTLPNGEKVLTTTTTYPDGTVTTRTTVIHGGTSTVTTTTTPAAPVPGPAPARASAGGS [r16_523_JUSTAS]” here?
A: Its value is 6.49 ± 0.356 kJ/mol.

Q: What about the “folding stability dG unfold” value [2] of the same sequence?
A: Its value is 1.76 ± 0.117 kJ/mol.

Q: What about the “folding stability dG unfold” value [3] of the same sequence?
A: Its value is 8.41 ± 0.247 kJ/mol.

Q: With “SAGMNTITFEYKTKDHYVKIDVQVYPPNEGYIRISIEIYNKDGEPKKEVKITIPAPPGDPAVRDFLDQFSAG [r5_964_TrROS]” as the sequence, how does the “folding stability dG unfold” value [1] read?
A: The value was 11.4 ± 1.46 kJ/mol.

Q: And the “folding stability dG unfold” value [2]?
A: The value was 11.6 ± 1.34 kJ/mol.

Q: And the “folding stability dG unfold” value [3]?
A: The value was 11.5 ± 0.197 kJ/mol.

Q: Which “folding stability dG unfold” value [1] does the source give for “GKAEVVRVEYDPETGALRVVLRREGADVVLEVDPETGVARVYFPADPRVLEFEFDTLEEAVDAAVALLEAGS [r1_177_TrMRF]” here?
A: The value was 18.2 ± 0.586 kJ/mol.

Q: What about the “folding stability dG unfold” value [2] of the same sequence?
A: Its value is 15 ± 0.711 kJ/mol.

Q: What about the “folding stability dG unfold” value [3] of the same sequence?
A: The value was 19.5 ± 0.586 kJ/mol.

Q: Which results are given for “SAGGARVFEVTFPDGSRARIVLLPDGTLLLETDSLDNLVALLEALGVELVSIRRHPDGRVLAVARLPPSAGG [r19_257_TrMRF]”?
A: folding stability dG unfold [1]: 18.5 ± 0.343 kJ/mol; folding stability dG unfold [2]: 18.8 ± 0.586 kJ/mol; folding stability dG unfold [3]: 18.1 ± 0.586 kJ/mol

Q: For “SAGGSAGGSGGFLVLEFEIEVDPEDPEKALAVVEALVESLGFEPVLIEVEEDENRVRVRVLLGSAGGSAGGS [r12_731_TrMRF]”, which “folding stability dG unfold” value [1] is on record?
A: Its value is 13 ± 0.544 kJ/mol.

Q: What about the “folding stability dG unfold” value [2] of the same sequence?
A: The value was 12.3 ± 0.414 kJ/mol.

Q: What about the “folding stability dG unfold” value [3] of the same sequence?
A: The value was 13 ± 0.544 kJ/mol.

Q: For “SAGGSAGGSAGGKTIRFKAKSPEEIAEKIKKGEEILTPDGKPVKITKVEPLPDGSVLITGSAGGSAGGSAGG [r11_48_TrMRF]”, which “folding stability dG unfold” value [1] is on record?
A: The value was 1.92 ± 0.339 kJ/mol.

Q: What about the “folding stability dG unfold” value [2] of the same sequence?
A: The value was 0.362 ± 0.711 kJ/mol.

Q: And the “folding stability dG unfold” value [3]?
A: Its value is 2.46 ± 0.753 kJ/mol.
